This note sets out measurements from PMC7166090, “A bacteriophage mimic of the bacterial nucleoid-associated protein Fis” (Biochemical Journal, 2020).

The target in one data set is T1, His-NinH H45A (Bacteriophage lambda (cI857 Sam7), UniProt P03771 1-68, A15T;H45A).
T1 sequence: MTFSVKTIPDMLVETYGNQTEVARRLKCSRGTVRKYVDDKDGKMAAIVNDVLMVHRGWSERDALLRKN
Kind of data set: MST; retained significant binding; MST: PBS pH 7.4 + 0.05% Tween-20, 22 C; anisotropy: 6.7 mM Tris-HCl pH 8.0, 3.3 nM (so in the source) sodium acetate, 2 mM EDTA, 25 C; EMSA (32P): 50 mM Tris-HCl pH 8.0, 5 mM EDTA, 1 mM DTT, 5% glycerol, 100 ug/ml BSA, on ice; EMSA (Cy520): PBS pH 7.4, room temp. Conditions: protein: recombinant; tags: N-His6; label: 5'-Cy5 on strand 1; blunt. In general terms: In EMSA bound probe runs differently from free probe, usually more slowly.

Another data set has as its target T2, His-NinH S29A (Bacteriophage lambda (cI857 Sam7), UniProt P03771 1-68, A15T;S29A).
T2 sequence: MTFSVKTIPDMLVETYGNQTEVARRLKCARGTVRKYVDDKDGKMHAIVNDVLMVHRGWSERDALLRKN
In words: MST; MST: PBS pH 7.4 + 0.05% Tween-20, 22 C; anisotropy: 6.7 mM Tris-HCl pH 8.0, 3.3 nM (so in the source) sodium acetate, 2 mM EDTA, 25 C; EMSA (32P): 50 mM Tris-HCl pH 8.0, 5 mM EDTA, 1 mM DTT, 5% glycerol, 100 ug/ml BSA, on ice; EMSA (Cy520): PBS pH 7.4, room temp. The following applies: protein: recombinant; tags: N-His6; chain copies: 2; label: 5'-Cy5 on strand 1; blunt.

For a further data set, the target named is T3, His-NinH K35A (Bacteriophage lambda (cI857 Sam7), UniProt P03771 1-68, A15T;K35A).
T3 sequence: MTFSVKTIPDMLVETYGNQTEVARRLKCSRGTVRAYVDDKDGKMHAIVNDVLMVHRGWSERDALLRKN
The description is as above. The following applies: protein: recombinant; tags: N-His6; chain copies: 2; label: 5'-Cy5 on strand 1; blunt.

For data set [1], the target named is T4, His-NinH wt (Bacteriophage lambda (cI857 Sam7), UniProt P03771 1-68, A15T).
T4 sequence: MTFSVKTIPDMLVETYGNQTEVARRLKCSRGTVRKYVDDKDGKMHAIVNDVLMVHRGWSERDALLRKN
The data set is described as above. The following applies: protein: recombinant; tags: N-His6; chain copies: 2; label: 5'-Cy5 on strand 1; blunt.

Another data set has as its target T5, His-NinH R56A (Bacteriophage lambda (cI857 Sam7), UniProt P03771 1-68, A15T;R56A).
T5 sequence: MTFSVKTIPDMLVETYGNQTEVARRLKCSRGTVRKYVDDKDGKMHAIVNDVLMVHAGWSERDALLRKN
Described as above. The following applies: protein: recombinant; tags: N-His6; chain copies: 2; label: 5'-Cy5 on strand 1; blunt.

For another data set, the target named is T6, His-NinH T32A (Bacteriophage lambda (cI857 Sam7), UniProt P03771 1-68, A15T;T32A).
T6 sequence: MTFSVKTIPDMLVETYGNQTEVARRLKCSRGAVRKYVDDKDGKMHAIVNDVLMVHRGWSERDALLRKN
The data set is described as above. The following applies: protein: recombinant; tags: N-His6; chain copies: 2; label: 5'-Cy5 on strand 1; blunt.

The target of data set [2] is T4, His-NinH wt. In words: EMSA; sub-micromolar; PBS; MST: PBS pH 7.4 + 0.05% Tween-20, 22 C; anisotropy: 6.7 mM Tris-HCl pH 8.0, 3.3 nM (so in the source) sodium acetate, 2 mM EDTA, 25 C; EMSA (32P): 50 mM Tris-HCl pH 8.0, 5 mM EDTA, 1 mM DTT, 5% glycerol, 100 ug/ml BSA, on ice; EMSA (Cy520): PBS pH 7.4, room temp. Conditions: protein: recombinant; tags: N-His6; chain copies: 2; label: 5'-Cy5 on strand 1; blunt.

The next data set concerns the target T7, His-NinH N18A (Bacteriophage lambda (cI857 Sam7), UniProt P03771 1-68, A15T;N18A).
T7 sequence: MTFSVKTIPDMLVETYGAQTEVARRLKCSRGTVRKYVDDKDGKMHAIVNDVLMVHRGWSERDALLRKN
In words: MST; intermediate effect; MST: PBS pH 7.4 + 0.05% Tween-20, 22 C; anisotropy: 6.7 mM Tris-HCl pH 8.0, 3.3 nM (so in the source) sodium acetate, 2 mM EDTA, 25 C; EMSA (32P): 50 mM Tris-HCl pH 8.0, 5 mM EDTA, 1 mM DTT, 5% glycerol, 100 ug/ml BSA, on ice; EMSA (Cy520): PBS pH 7.4, room temp. The following applies: protein: recombinant; tags: N-His6; chain copies: 2; label: 5'-Cy5 on strand 1; blunt.

Data set [3] deals with T8, NinH (native, untagged) (Bacteriophage lambda (cI857 Sam7), UniProt P03771 1-68, A15T).
T8 sequence: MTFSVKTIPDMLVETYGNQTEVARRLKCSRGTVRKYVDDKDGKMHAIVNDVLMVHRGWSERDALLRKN
Kind of data set: EMSA; two complexes; MST: PBS pH 7.4 + 0.05% Tween-20, 22 C; anisotropy: 6.7 mM Tris-HCl pH 8.0, 3.3 nM (so in the source) sodium acetate, 2 mM EDTA, 25 C; EMSA (32P): 50 mM Tris-HCl pH 8.0, 5 mM EDTA, 1 mM DTT, 5% glycerol, 100 ug/ml BSA, on ice; EMSA (Cy520): PBS pH 7.4, room temp. Conditions: protein: recombinant; tags: none; chain copies: 2; label: 5'-32P on strand 1; blunt.

Data set [4] concerns the target T4, His-NinH wt. In words: fluorescence anisotropy; Hill 1.985; dimer concentration; MST: PBS pH 7.4 + 0.05% Tween-20, 22 C; anisotropy: 6.7 mM Tris-HCl pH 8.0, 3.3 nM (so in the source) sodium acetate, 2 mM EDTA, 25 C; EMSA (32P): 50 mM Tris-HCl pH 8.0, 5 mM EDTA, 1 mM DTT, 5% glycerol, 100 ug/ml BSA, on ice; EMSA (Cy520): PBS pH 7.4, room temp. The following applies: protein: recombinant; tags: N-His6; chain copies: 2; label: 3'-fluorescein (C6 linker) on strand 1; blunt.

The target in data set [5] is T8, NinH (native, untagged). In words: fluorescence anisotropy; Hill 2.23; dimer concentration; MST: PBS pH 7.4 + 0.05% Tween-20, 22 C; anisotropy: 6.7 mM Tris-HCl pH 8.0, 3.3 nM (so in the source) sodium acetate, 2 mM EDTA, 25 C; EMSA (32P): 50 mM Tris-HCl pH 8.0, 5 mM EDTA, 1 mM DTT, 5% glycerol, 100 ug/ml BSA, on ice; EMSA (Cy520): PBS pH 7.4, room temp. Conditions: protein: recombinant; tags: none; chain copies: 2; label: 3'-fluorescein (C6 linker) on strand 1; blunt. For orientation: Polarisation of emitted light reports the rotation of a fluorescent probe.

Data set [6] deals with T4, His-NinH wt. In words: EMSA; two complexes; MST: PBS pH 7.4 + 0.05% Tween-20, 22 C; anisotropy: 6.7 mM Tris-HCl pH 8.0, 3.3 nM (so in the source) sodium acetate, 2 mM EDTA, 25 C; EMSA (32P): 50 mM Tris-HCl pH 8.0, 5 mM EDTA, 1 mM DTT, 5% glycerol, 100 ug/ml BSA, on ice; EMSA (Cy520): PBS pH 7.4, room temp. Conditions: protein: recombinant; tags: N-His6; chain copies: 2; label: 5'-32P on strand 1; blunt.

Data set [7] concerns the target T4, His-NinH wt. In words: EMSA; single complex; MST: PBS pH 7.4 + 0.05% Tween-20, 22 C; anisotropy: 6.7 mM Tris-HCl pH 8.0, 3.3 nM (so in the source) sodium acetate, 2 mM EDTA, 25 C; EMSA (32P): 50 mM Tris-HCl pH 8.0, 5 mM EDTA, 1 mM DTT, 5% glycerol, 100 ug/ml BSA, on ice; EMSA (Cy520): PBS pH 7.4, room temp. Conditions: protein: recombinant; tags: N-His6; chain copies: 2; label: 5'-32P on strand 1; fork 1:2, 31 bp duplex.

Data set [8] has as its target T4, His-NinH wt. Kind of data set: EMSA; assembles on each arm; MST: PBS pH 7.4 + 0.05% Tween-20, 22 C; anisotropy: 6.7 mM Tris-HCl pH 8.0, 3.3 nM (so in the source) sodium acetate, 2 mM EDTA, 25 C; EMSA (32P): 50 mM Tris-HCl pH 8.0, 5 mM EDTA, 1 mM DTT, 5% glycerol, 100 ug/ml BSA, on ice; EMSA (Cy520): PBS pH 7.4, room temp. The following applies: protein: recombinant; tags: N-His6; chain copies: 2; label: 5'-32P on strand 1; four-way junction, 11 bp homologous core.

B1: Cy520 (NinH consensus) (dsDNA)
DNA 1: ACCGATCAAGAATTGTGCAT
DNA 2: ATGCACAATTCTTGATCGGT
One may read the Kd as the equilibrium constant for the complex coming apart. Take B1: the Kd in the data set with His-NinH H45A is more than 350 nM; in the data set with His-NinH S29A, 13 ± 2.7 nM; in the data set with His-NinH wt [1], 5.6 ± 1.5 nM; in the data set with His-NinH wt [2], less than 1000 nM; in the data set with His-NinH N18A, more than 220 nM. For the same molecule, the binding result with His-NinH K35A, with His-NinH R56A and in the data set with His-NinH T32A was “no binding” throughout.

B2: DS60 (dsDNA)
DNA 1: TTTGGTCTAACTTTACCGCTACTAAATGCCGCGGATTGGTTTCGCTGAATCAGGTTATTA
DNA 2: TAATAACCTGATTCAGCGAAACCAATCCGCGGCATTTAGTAGCGGTAAAGTTAGACCAAA
Turning to B2, the binding result with NinH (native, untagged) [3] is reported as “binds”.

B3: DS20 (o-FLU20/o-SS20) (dsDNA)
DNA 1: TGGGTCAACGTGGGCAAAGA
DNA 2: TCTTTGCCCACGTTGACCCA
Turning to B3, the Kd was 43 nM with His-NinH wt [4] and approximately 57 nM with NinH (native, untagged) [5].

B4: DS50 (dsDNA)
DNA 1: GGCGACGTGATCACCAGATGATTGCTAGGCATGCTTTCCGCAAGAGAAGC
DNA 2: GCTTCTCTTGCGGAAAGCATGCCTAGCAATCATCTGGTGATCACGTCGCC
For the molecule B4, the binding result in the data set with His-NinH wt [6] is “binds”.

B5: Forked duplex FD (structured_DNA)
DNA 1: GGCGACGTGATCACCAGATGATTGCTAGGCATGCTTTCCGCAAGAGAAGC
DNA 2: GGCTTCTCTTGCGGAAAGCATGCCTAGCAATCCTGTCAGCTGCATGGAAC
B5: in the data set with His-NinH wt [7], the binding result was “binds”.

B6: Holliday junction HJ (structured_DNA)
DNA 1: GGCGACGTGATCACCAGATGATTGCTAGGCATGCTTTCCGCAAGAGAAGC
DNA 2: GGCTTCTCTTGCGGAAAGCATGCCTAGCAATCCTGTCAGCTGCATGGAAC
DNA 3: GGTTCCATGCAGCTGACAGGATTGCTAGGCTCAAGGCGAACTGCTAACGG
DNA 4: ACCGTTAGCAGTTCGCCTTGAGCCTAGCAATCATCTGGTGATCACGTCGC
Turning to B6, the binding result with His-NinH wt [8] is listed as “binds”.
